Results as given in patent US11957698B2, “Synergistic combination of thermolysin and an antibacterial agent to reduce or eliminate bacterial biofilms from surfaces” (SMITH & NEPHEW, INC., priority 2017, dated 2024).

B1: thermolysin (protein, UniProt P00800 233-548, looked up)
Thermolysin: ITGTSTVGVGRGVLGDQKNINTTYSTYYYLQDNTRGNGIFTYDAKYRTTLPGSLWADADNQFFASYDAPAVDAHYYAGVTYDYYKNVHNRLSYDGNNAAIRSSVHYSQGYNNAFWNGSQMVYGDGDGQTFIPLSGGIDVVAHELTHAVTDYTAGLIYQNESGAINEAISDIFGTLVEFYANKNPDWEIGEDVYTPGISGDSLRSMSDPAKYGDPDHYSKRYTGTQDNGGVHINSGIINKAAYLISQGGTHYGVSVVGIGRDKLGKIFYRALTQYLTPTSNFSQLRAAAVQSATDLYGSTSQEVASVKQAFDAVGVK

What was measured:
Assay type in all cases: cell-based
S. aureus ATCC 29213 = test: Minimum inhibitory concentration (MIC) in bacteria suspension; details: for MIC values: thermolysin, where present, kept constant at 50 μg/mL
Procedure: (§1) The concentration of thermolysin in the MIC experiments was kept constant at 50 μg/mL.

P. aeruginosa ATCC 27312 = test: as above; details: for MIC values: thermolysin, where present, kept constant at 50 μg/mL
Procedure: as §1

[1] = tested on: P. aeruginosa ATCC 15442 bacterial biofilm; test: In-vitro gram-negative bacterial biofilm study, 96 well plate, crystal violet staining; details: 18 hours at 37° C., FIG. 2
Procedure: An in-vitro assay was performed to determine the bacterial biofilm reduction capabilities of thermolysin and collagenase on gram-negative bacterial biofilms. In this assay P. aeruginosa ATCC 15442 was suspended in a growth media of 10% tryptic soy broth in PBS supplemented with 0.45% glucose (TSBG). The suspension was transferred to the wells of sterile 96 well plates and incubated for 18 hours at 37° C., then the media was changed with fresh media and incubated an additional 8 hours at 37° C. After formation of the bacterial biofilm, the growth media was replaced with solutions of thermolysin dissolved in TSBG growth media at various concentrations in some wells and replaced with solutions of collagenase dissolved in growth media at the same concentrations in other wells (enzyme concentrations were 0.00001 mg/mL, 0.0001 mg/mL, 0.001 mg/mL, 0.01 mg/mL, 0.1 mg/mL, 1.0 mg/mL, and 10 mg/mL). After 18 hours at 37° C., the remaining attached bacteria were quantified by removing the enzyme solutions (enzyme+TSBG growth media) and washing the plate thoroughly followed by crystal violet staining and recording the absorbance at 570 nm. A growth media control without enzyme was also tested. […] A decreased absorbance compared to the Control indicates a reduction of attached bacteria meaning a reduction of the bacterial biofilm occurred.

[2] = tested on: S. aureus ATCC 6538 bacterial biofilm; test: In-vitro gram-positive bacterial biofilm study, 96 well plate, crystal violet staining; details: concentrations of 0.00001 mg/mL-10 mg/mL, 16 hours, FIG. 1
Procedure: An in-vitro assay was performed to determine the bacterial biofilm reduction capabilities of thermolysin and collagenase on gram-positive bacterial biofilms. In this assay, S. aureus ATCC 6538 was suspended in a growth media of tryptic soy broth supplemented with 0.25% glucose for optimal bacterial biofilm formation. The suspension was transferred to the wells of sterile 96 well plates and incubated for 22 hours at 37° C. with one change of media. After formation of the bacterial biofilm, the growth media was replaced with solutions of thermolysin dissolved in growth media at various concentrations in some wells and replaced with solutions of collagenase dissolved in growth media at the same concentrations in other wells (enzyme concentrations were 0.000001 mg/mL, 0.00001 mg/mL, 0.0001 mg/mL, 0.001 mg/mL, 0.01 mg/mL, 0.1 mg/mL, 1.0 mg/mL, and 10 mg/mL). After 16 hours, the remaining attached bacteria were quantified by aspirating the enzyme solutions (enzyme+growth media) and washing the plate thoroughly followed by crystal violet staining and recording the absorbance at 570 nm. A growth media control without enzyme was also tested. The crystal violet binds to negative charges on the remaining attached bacteria and the EPS. A decreased absorbance compared to the Control indicates a reduction of attached bacteria meaning a reduction of the bacterial biofilm occurred.

Row | Molecule | MIC values (S. aureus ATCC 29213; Rep 1) | MIC values (S. aureus ATCC 29213; Rep 2) | MIC values (P. aeruginosa ATCC 27312; Rep 1) | MIC values (P. aeruginosa ATCC 27312; Rep 2) | effect in reducing the bacterial biofilm (crystal violet absorbance at 570 nm vs growth media control) ([1]; concentrations of 0.00001 mg/mL-0.01 mg/mL) | effect in reducing the bacterial biofilm (crystal violet absorbance at 570 nm vs growth media control) ([1]; concentrations of 0.1 mg/mL-10 mg/mL) | effect in reducing the bacterial biofilm (crystal violet absorbance at 570 nm vs growth media control) [2] | effect of the addition of thermolysin on the MIC of gentamicin sulfate (S. aureus ATCC 29213; thermolysin 50 μg/mL) | effect of the addition of thermolysin on the MIC of gentamicin sulfate (P. aeruginosa ATCC 27312; thermolysin 50 μg/mL)
1 | gentamicin sulfate | 1.6 µg/mL | 1.6 µg/mL | 50 µg/mL | 50 µg/mL |  |  |  |  | 
2 | B1 |  |  |  |  | little effect | no effect | had an effect in reducing the bacterial biofilm | did not affect the MIC | did not affect the MIC
